The target of this experiment is Recombinant CHIKV E2 ectodomain protein (corresponding to the CHIKV-LR2006 strain) (Chikungunya virus strain LR2006). Nature of the experiment: ELISA on coated E2 ectodomain.

The values below come from patent US20200277359A1.

In the case of murine CHK-152 (antibody), the OD450 is below 0.1 od.
